Experiment [1] concerns the target Influenza D virus nucleoprotein, strain D/bovine/France/2986/2012 (Influenza D virus, strain D/bovine/France/2986/2012). Put plainly: negative-stain electron microscopy.
Experiment [2] has the same target. Nature of the experiment: SEC-MALLS.
Experiment [3] addresses Biotinylated D/NP_(TAIL) fused to a biotinylation motif (Influenza D virus, strain D/bovine/France/2986/2012). Nature of the experiment: SPR; Biacore 3000; […]; 10 mM Hepes pH 7.4, 150 mM NaCl, 0.05% Tween 20; […]. Background: Surface plasmon resonance follows binding to a sensor surface in real time, without labels.
Experiment [4] addresses His-tagged D/NP_(TAIL) (505-D/NP-552) (Influenza D virus, strain D/bovine/France/2986/2012). Put plainly: thermal shift assay (Thermofluor).

Sequence of human importin-α7 without its IBB domain (amino-acids 58 to 536), O60684 58-536 (domain or fragment; other documents disagree on this pair) (O60684 58-536): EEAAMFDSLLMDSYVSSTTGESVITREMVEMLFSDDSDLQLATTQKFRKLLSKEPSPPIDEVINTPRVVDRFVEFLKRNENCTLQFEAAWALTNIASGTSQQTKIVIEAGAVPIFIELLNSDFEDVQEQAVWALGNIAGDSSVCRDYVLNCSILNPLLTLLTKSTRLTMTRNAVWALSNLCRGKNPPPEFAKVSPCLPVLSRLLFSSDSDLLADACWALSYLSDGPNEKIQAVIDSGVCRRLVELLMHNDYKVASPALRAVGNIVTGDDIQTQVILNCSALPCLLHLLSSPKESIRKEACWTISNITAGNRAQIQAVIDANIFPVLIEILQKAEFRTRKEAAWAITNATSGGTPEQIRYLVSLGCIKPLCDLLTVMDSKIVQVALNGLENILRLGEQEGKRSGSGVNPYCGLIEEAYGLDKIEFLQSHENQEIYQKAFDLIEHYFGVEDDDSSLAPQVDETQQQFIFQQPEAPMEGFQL

What is called stoichiometry N is a count of units in the complex or per binding partner. For the substance “Influenza D virus nucleoprotein, strain D/bovine/France/2986/2012 (from UniProt A0A0E3VZU8 1-552) (natural protein)”, the stoichiometry N in experiment [1] and in experiment [2] was 4 throughout.

The term Kd denotes the constant that tells how readily two partners part at equilibrium. Turning to “human importin-α7 without its IBB domain (amino-acids 58 to 536), O60684 58-536 (domain or fragment; other documents disagree on this pair)”, in experiment [2], the stoichiometry N (importin-α7 per D/NP tetramer) was 4. This substance showed a Kd in experiment [3] of 0.1 µM. Also, in experiment [4], the rise of the melting temperature was determined as 5 °C.

The record behind these values is article PMC6346101.
